# From patent US20230074436A1 (DENALI THERAPEUTICS, published 2023)
# Biological target: T1, human alpha-synuclein monomer (human, UniProt P37840 1-140)
# Experiment: SPR (Biacore 8K), IgG captured on anti-human Fc, aSyn monomer injected
row,Kd,Binder
1,0.22 nM,"HC6_LC_k3_2_v1 (antibody, V domains shown) VH: EVQLVESGGGLVQPGGSLRLSCAASGFTFSNAAMYWVRQAPGKGLELVSRIRTKPNNYATYHADSVKGRFTISRDDSKNTLYLQMNSLRAEDTAVYYCTADMATGDYWGQGTLVTVSS VL: EIVMTQSPATLSLSPGERATLSCKASQNINKNLDWYQQKPGQAPRPLIYSTNNLKTGIPARFSGSGSGTDFTLTISSLQPEDFAVYYCYQYKSAWTFGQGTKVEIK"
2,0.13 nM,"20H4_HC5_LC_k3_1 (antibody, V domains shown) VH: EVQLVESGGGLVQPGGSLRLSCAASGFTFSNAAMYWVRQAPGKGLELLARIRTKPNNYATYHADSVKGRFTISRDDSKNTVYLQMNSLRAEDTAVYYCTADMATGDYWGQGTLVTVSS VL: EIVMTQSPATLSLSPGERATLSCKASQNINNNLDWYQQKPGQAPRPLIYSTNNLKTGIPARFSGSGSGTDFTLTISSLQPEDFAVYYCYQYKSAWTFGQGTKVEIK"

# Biological target: T1, human alpha-synuclein monomer
# Experiment: as above
# Remark: another data set of the same source
row,Binder,Kd
1,"HC2_L3_11 (antibody, V domains shown) VH: EVQLVESGGGLVQPGGSLRLSCAASGFTFSNAAMYWVRQAPGKGLELVSRIRTKPNNYATYHADSVKGRFTISRDNSKNTLYLQMNSLRAEDTAVYYCTADMATGDYWGQGTLVTVSS VL: DIQMTQSPSSLSASVGDRVTITCKASQNINKNLDWYQQKPGKAPKPLIYSTNNLQTGVPSRFSGSGSGTDFTLTISSLQPEDFATYYCYQYKFAWTFGQGTKVEIK",3.4 nM
2,"HC2_L3_2 (antibody, V domains shown) VH: EVQLVESGGGLVQPGGSLRLSCAASGFTFSNAAMYWVRQAPGKGLELVSRIRTKPNNYATYHADSVKGRFTISRDNSKNTLYLQMNSLRAEDTAVYYCTADMATGDYWGQGTLVTVSS VL: DIQMTQSPSSLSASVGDRVTITCKASQNINKNLDWYQQKPGKAPKPLIYSTNNLQTGVPSRFSGSGSGTDFTLTISSLQPEDFATYYCYQDKRGWTFGQGTKVEIK",4.52 nM
3,"HC2_L3_7 (antibody, V domains shown) VH: EVQLVESGGGLVQPGGSLRLSCAASGFTFSNAAMYWVRQAPGKGLELVSRIRTKPNNYATYHADSVKGRFTISRDNSKNTLYLQMNSLRAEDTAVYYCTADMATGDYWGQGTLVTVSS VL: DIQMTQSPSSLSASVGDRVTITCKASQNINKNLDWYQQKPGKAPKPLIYSTNNLQTGVPSRFSGSGSGTDFTLTISSLQPEDFATYYCYQYKNGWTFGQGTKVEIK",4.59 nM
4,"HC2_L3_1 (antibody, V domains shown) VH: EVQLVESGGGLVQPGGSLRLSCAASGFTFSNAAMYWVRQAPGKGLELVSRIRTKPNNYATYHADSVKGRFTISRDNSKNTLYLQMNSLRAEDTAVYYCTADMATGDYWGQGTLVTVSS VL: DIQMTQSPSSLSASVGDRVTITCKASQNINKNLDWYQQKPGKAPKPLIYSTNNLQTGVPSRFSGSGSGTDFTLTISSLQPEDFATYYCYQDKNGWTFGQGTKVEIK",4.2 nM
5,"HC2_L3_3 (antibody, V domains shown) VH: EVQLVESGGGLVQPGGSLRLSCAASGFTFSNAAMYWVRQAPGKGLELVSRIRTKPNNYATYHADSVKGRFTISRDNSKNTLYLQMNSLRAEDTAVYYCTADMATGDYWGQGTLVTVSS VL: DIQMTQSPSSLSASVGDRVTITCKASQNINKNLDWYQQKPGKAPKPLIYSTNNLQTGVPSRFSGSGSGTDFTLTISSLQPEDFATYYCYQDKKGWTFGQGTKVEIK",5.28 nM

# Other lines, results leading:
row,Kd,Binder
1,3.28 nM,"HC2_L3_6 (antibody, V domains shown) VH: EVQLVESGGGLVQPGGSLRLSCAASGFTFSNAAMYWVRQAPGKGLELVSRIRTKPNNYATYHADSVKGRFTISRDNSKNTLYLQMNSLRAEDTAVYYCTADMATGDYWGQGTLVTVSS VL: DIQMTQSPSSLSASVGDRVTITCKASQNINKNLDWYQQKPGKAPKPLIYSTNNLQTGVPSRFSGSGSGTDFTLTISSLQPEDFATYYCYQYKKAWTFGQGTKVEIK"
2,3.24 nM,"HC2_L3_5 (antibody, V domains shown) VH: EVQLVESGGGLVQPGGSLRLSCAASGFTFSNAAMYWVRQAPGKGLELVSRIRTKPNNYATYHADSVKGRFTISRDNSKNTLYLQMNSLRAEDTAVYYCTADMATGDYWGQGTLVTVSS VL: DIQMTQSPSSLSASVGDRVTITCKASQNINKNLDWYQQKPGKAPKPLIYSTNNLQTGVPSRFSGSGSGTDFTLTISSLQPEDFATYYCYQYKNAWTFGQGTKVEIK"
3,3.01 nM,"HC2_L3_8 (antibody, V domains shown) VH: EVQLVESGGGLVQPGGSLRLSCAASGFTFSNAAMYWVRQAPGKGLELVSRIRTKPNNYATYHADSVKGRFTISRDNSKNTLYLQMNSLRAEDTAVYYCTADMATGDYWGQGTLVTVSS VL: DIQMTQSPSSLSASVGDRVTITCKASQNINKNLDWYQQKPGKAPKPLIYSTNNLQTGVPSRFSGSGSGTDFTLTISSLQPEDFATYYCYQFKKAWTFGQGTKVEIK"
4,2.98 nM,"HC2_L3_9 (antibody, V domains shown) VH: EVQLVESGGGLVQPGGSLRLSCAASGFTFSNAAMYWVRQAPGKGLELVSRIRTKPNNYATYHADSVKGRFTISRDNSKNTLYLQMNSLRAEDTAVYYCTADMATGDYWGQGTLVTVSS VL: DIQMTQSPSSLSASVGDRVTITCKASQNINKNLDWYQQKPGKAPKPLIYSTNNLQTGVPSRFSGSGSGTDFTLTISSLQPEDFATYYCYQYKYAWTFGQGTKVEIK"
5,2.93 nM,"HC2_L3_10 (antibody, V domains shown) VH: EVQLVESGGGLVQPGGSLRLSCAASGFTFSNAAMYWVRQAPGKGLELVSRIRTKPNNYATYHADSVKGRFTISRDNSKNTLYLQMNSLRAEDTAVYYCTADMATGDYWGQGTLVTVSS VL: DIQMTQSPSSLSASVGDRVTITCKASQNINKNLDWYQQKPGKAPKPLIYSTNNLQTGVPSRFSGSGSGTDFTLTISSLQPEDFATYYCYQYKLAWTFGQGTKVEIK"
6,2.84 nM,"HC2_L3_4 (antibody, V domains shown) VH: EVQLVESGGGLVQPGGSLRLSCAASGFTFSNAAMYWVRQAPGKGLELVSRIRTKPNNYATYHADSVKGRFTISRDNSKNTLYLQMNSLRAEDTAVYYCTADMATGDYWGQGTLVTVSS VL: DIQMTQSPSSLSASVGDRVTITCKASQNINKNLDWYQQKPGKAPKPLIYSTNNLQTGVPSRFSGSGSGTDFTLTISSLQPEDFATYYCYQDKSGWTFGQGTKVEIK"
7,2.45 nM,"HC2_L1_2 (antibody, V domains shown) VH: EVQLVESGGGLVQPGGSLRLSCAASGFTFSNAAMYWVRQAPGKGLELVSRIRTKPNNYATYHADSVKGRFTISRDNSKNTLYLQMNSLRAEDTAVYYCTADMATGDYWGQGTLVTVSS VL: DIQMTQSPSSLSASVGDRVTITCKASQIINQILDWYQQKPGKAPKPLIYSTNNLQTGVPSRFSGSGSGTDFTLTISSLQPEDFATYYCYQYKSAWTFGQGTKVEIK"
8,2.01 nM,"HC2_L2_2 (antibody, V domains shown) VH: EVQLVESGGGLVQPGGSLRLSCAASGFTFSNAAMYWVRQAPGKGLELVSRIRTKPNNYATYHADSVKGRFTISRDNSKNTLYLQMNSLRAEDTAVYYCTADMATGDYWGQGTLVTVSS VL: DIQMTQSPSSLKSSVGDRVTITCKASQNINKNLDWYQQKPGKAPKPLIYRTKNLQTGVPSRFSGSGSGTDFTLTISSLQPEDFATYYCYQYKSAWTFGQGTKVEIK"
9,1.78 nM,"HC2_L2_1 (antibody, V domains shown) VH: EVQLVESGGGLVQPGGSLRLSCAASGFTFSNAAMYWVRQAPGKGLELVSRIRTKPNNYATYHADSVKGRFTISRDNSKNTLYLQMNSLRAEDTAVYYCTADMATGDYWGQGTLVTVSS VL: DIQMTQSPSSLSASVGDRVTITCKASQNINKNLDWYQQKPGKAPKPLIYSTNKLKTGVPSRFSGSGSGTDFTLTISSLQPEDFATYYCYQYKSAWTFGQGTKVEIK"
